According to PMC11516162, “A Novel Antigen Design Strategy to Isolate Single‐Domain Antibodies that Target Human Nav1.7 and Reduce Pain in Animal Models” (Advanced Science, 2024):
Like-named read-outs stand apart in the source and are kept apart here.

Assays:
[1] = target: mouse Nav1.7 (mouse (endogenous in CD-1 mice)) (UniProt Q62205)
[2] = target: rat, mouse and human FC5‐DIE3IR; assay: SPR; Biacore T200, 25 °C, HBS‐EP+ (10 mM HEPES pH 7.4, 150 mM NaCl, 3 mM EDTA, 0.05% P20); FC5‐DIE3IR and FC5 amine coupled (300–400 RU) on CM5; VHH DI‐D monomer fractions flowed at 312 nM to 5 µM, single cycle kinetics; KD by steady state analysis
human FC5‐DIE3IR [3] = target: T1, human FC5‐DIE3IR (Homo sapiens, chimera, glycosylated (about up to 50%)); assay: as above; conditions: both partners purified
T1 construct: llama VHH FC5 from its N-terminus to residue 101 (three CDR3 residues kept on the N-terminal side of the graft); human Nav1.7 alpha subunit, 70 residues of extracellular loop 3 of domain DI (DIE3IR), put in place of Ser102-Leu107 of the CDR3 of FC5; llama VHH FC5 from residue 108 to its C-terminus (four CDR3 residues kept on the C-terminal side of the graft); Two disulfide bonds in the grafted …

rat FC5‐DIE3IR = target: T2, rat FC5‐DIE3IR (Rattus norvegicus, UniProt O08562, chimera); assay: as above; conditions: both partners purified
T2 construct: llama VHH FC5 N-terminal part, as the first part of m2; rat Nav1.7 alpha subunit, the stretch equivalent to the human DIE3IR domain; llama VHH FC5 C-terminal part, as the last part of m2; source: cloned as the human one (pTT5); SEC purified (Superdex 75) for SPR

mouse FC5‐DIE3IR = target: T3, mouse FC5‐DIE3IR (Mus musculus, UniProt Q62205, chimera); assay: as above; conditions: both partners purified
T3 construct: llama VHH FC5 N-terminal part, as the first part of m2; mouse Nav1.7 alpha subunit, the stretch equivalent to the human DIE3IR domain; llama VHH FC5 C-terminal part, as the last part of m2; source: cloned as the human one (pTT5); SEC purified (Superdex 75) for SPR

human FC5‐DIE3IR [4] = target: T1, human FC5‐DIE3IR; assay: SPR; Biacore T200, 25 °C, HBS-EP+ (10 mM HEPES pH 7.4, 150 mM NaCl, 3 mM EDTA, 0.05% P20); FC5-DIE3IR (human, mouse, rat) and FC5 amine coupled (300-400 RU) on CM5; SEC-purified monomeric VHH DI-D flowed over at 312 nM to 5 µM, single cycle kinetics; KD by steady state analysis
[5] = target: Mouse FC5-DIE3IR (llama | mouse); assay: as above
[6] = target: Rat FC5-DIE3IR (llama | rat); assay: as above
human FC5‐DIE3IR [7] = target: T1, human FC5‐DIE3IR; assay: as above; remark: listed apart in the source
[8] = target: Mouse FC5-DIE3IR (llama | mouse); assay: as above; remark: listed apart in the source
[9] = target: Rat FC5-DIE3IR (llama | rat); assay: as above; remark: listed apart in the source
human FC5‐DIE3IR [10] = target: T1, human FC5‐DIE3IR; assay: as above; remark: listed apart in the source
[11] = target: Mouse FC5-DIE3IR (llama | mouse); assay: as above; remark: listed apart in the source

B1: VHH DI‐D (VHH)
VHH: QVKLEESGGGLVQPGGSLKLSCVASGFAFSSAPMDWVRKAPGKDVEWLSTIESDQDHTIYYANSVKGRFTISRDDVQNILYLQMNDLKIEDTATYYCQKRGEKKTRGQGTQVTVSS
notes: CDR3 of VHH DI-D as printed in the discussion; Isolated from a naive llama, alpaca and camel phage library (LAC-M) by panning on FC5-DIE3IR; source: E. coli, purified by IMAC (gene synthesized and cloned by GenScript; pSJF2 expression vector); SEC-purified monomer fractions for SPR
time mice spend in pain behaviors, mouse OD1 model, VHH DI‐D (50 µg) pre‐mixed 30 min with FC5‐DIE3IR (200 µg): no reduction [1]: 312 s | Kd [2]: 1560 to 1720 nM | binding result (human FC5‐DIE3IR [3]): binds | binding result (rat FC5‐DIE3IR): binds | binding result (mouse FC5‐DIE3IR): binds | Kd (human FC5‐DIE3IR [4]): 1700 nM | Kd [5]: 1660 nM | Kd [6]: 1560 nM | Kd (human FC5‐DIE3IR [7]): 1720 nM | Kd [8]: 1700 nM | Kd [9]: 1590 nM | Kd (human FC5‐DIE3IR [10]): 1710 nM | Kd [11]: 1680 nM
